Test results reported in patent publication US8663616B2, “Enzymatic peracid generation for use in oral care products” (E I du Pont de Nemours and Company, priority 2010, dated 2014).

What was measured:
Assay type in all cases: biochemical
[1] = M. smegmatis aryl esterase constructs, peracetic acid when bound to hydroxyapatite particles (Example 10); conditions: 33 mg HAP particles exposed to 10 μM enzyme; 100 mM triacetin, 100 mM H2O2, 30 min, 37° C.; no enzyme 323
Procedure: (§1) The detection of peracetic acid followed the method described in Pinkernell et. al. (Analyst, 1997, 122, 567) using colorimetric detection of 2,2′-azino-bis(3-ethylbenzothiazoline(-6-sulfonate (ABTS) oxidation by peracetic acid. Following the formation of peracetic acid with the addition of triacetin and hydrogen peroxide, 90 μL of solution was added to 10 μL of 0.1 M H3PO4 in a well plate. 50 μL of 1 M acetic acid, 50 μL of 0.5 g/L ABTS and 50 μL of 0.002 g/L of KI was added. The solution was allowed to develop for 5 min. The absorbance of the solution was measured at 405 nm using a microplate reader. The peracetic acid concentration was calculated based on a standard curve developed simultaneously using peracetic acid reagent solution.
For assessment of binding and activity on hydroxyapatite, the aryl esterase enzymes were exposed to hydroxyapatite particles as described in Example 8 using 33 mg of buffer washed HAP particles (Macro-prep Ceramic Hydroxyapatite TYPE I, 80 μm size BioRad, Hercules, Calif.) using a 10 μM solution in 10 mM phosphate buffer. Following centrifugation and removal of the enzyme solution, the particles were rinsed with phosphate butter by centrifuging and removing the supernatant. A 200 μL solution containing 100 mM triacetin, 100 mM H2O2 and 100 mM phosphate buffer, pH 7.2 was added to the particles and incubated at 37° C. for 30 min. As described in Example 7, the reaction was stopped by removing a portion to H3PO4 and a 10 μL aliquot was removed diluted for detection via ABTS oxidation.

[2] = M. smegmatis aryl esterase constructs, peracetic acid in solution (Example 10); conditions: 0.5 μM enzyme, 100 mM triacetin, 100 mM H2O2, pH 7.2, 30 min, 37° C.; no enzyme 158
Procedure: as §1
For aryl esterase constructs, the enzyme activity in solution was measured by making a 1 mL solution of 0.5 μM of each enzyme, 100 mM triacetin, and 100 mM H2O2 in 100 mM phosphate buffer, pH 7.2. The solution was mixed and incubated for 30 min, at 37° C. As described in Example 7, the reaction was stopped by removing a portion to H3PO4 and a 10 μL aliquot was removed and diluted for detection via ABTS oxidation.

[3] = P. fluorescens perhydrolase constructs, peracetic acid when bound to hydroxyapatite particles (Example 10); conditions: 100 mg HAP particles exposed to 20 μM enzyme; 300 mM H2O2, 1 M sodium acetate pH 5.5, 10 min, 37° C.; no enzyme 17
Procedure: as §1
(§2) For P. fluorescens constructs, the solution activity was measured by mixing a 1 mL solution containing 2 μM enzyme, 100 mM H2O2 in a 1 M sodium acetate buffer, pH 5.5. The solution was incubated at 37° C. for 30 min. As described in Example 7, the reaction was stopped by removing a portion to H3PO4 and a 10 μL aliquot was removed and diluted for detection via ABTS oxidation. For assessment of binding and activity on hydroxyapatite, the P. fluorescens enzymes were exposed to hydroxyapatite particles at 20 μM in 10 mM phosphate buffer as described in Example 8 using 100 mg of buffer washed HAP particles (Macro-prep Ceramic Hydroxyapatite TYPE I, 80 μm size BioRad, Hercules, Calif.). Following centrifugation and removal of the enzyme solution, the particles were rinsed with phosphate butter by centrifuging and removing the supernatant. A 200 μL solution containing 300 mM H2O2 in 1 M sodium acetate buffer, pH 5.5 was added to the particles and incubated at 37° C. for 10 min. As described in Example 7, the reaction was stopped by removing a portion to H3PO4 and a 10 μL aliquot was removed and diluted for detection via ABTS oxidation.

[4] = P. fluorescens perhydrolase constructs, peracetic acid in solution (Example 10); conditions: 2 μM enzyme, 100 mM H2O2, 1 M sodium acetate pH 5.5, 30 min, 37° C.; no enzyme 9
Procedure: as §1, §2

Row | Molecule | Peracetic acid (ppm) On Hydroxyapatite [1] [ppm] | Peracetic acid (ppm) In Solution [2] [ppm] | Peracetic acid (ppm) On Hydroxyapatite [3] [ppm] | Peracetic acid (ppm) In Solution [4] [ppm]
1 | EZ-36: M. smegmatis aryl esterase ArE S54V, untargeted, SEQ ID NO: 460 (protein, listed as Mycobacterium smegmatis) MAKRILCFGDSLTWGWVPVEDGAPTERFAPDVRWTGVLAQQLGADFEVIEEGLVARTTNIDDPTDPRLNGASYLPSCLATHLPLDLVIIMLGTNDTKAYFRRTPLDIALGMSVLVTQVLTSAGGVGTTYPAPKVLVVSPPPLAPMPHPWFQLIFEGGEQKTTELARVYSALASFMKVPFFDAGSVISTDGVDGIHFTEANNRDLGVALAEQVRSLL | 452 | 2697 | – | –
2 | EZ-41: Pfl-link1-H6, SEQ ID NO: 465 (protein) MSTFVAKDGTQIYFKDWGSGKPVLFSHGWPLDADMWEYQMEYLSSRGYRTIAFDRRGFGRSDQPWTGNDYDTFADDIAQLIEHLDLKEVTLVGFSMGGGDVARYIARHGSARVAGLVLLGAVTPLFGQKPDYPQGVPLDVFARFKTELLKDRAQFISDFNAPFYGINKGQVVSQGVQTQTLQIALLASLKATVDCVTAFAETDFRPDMAKIDVPTLVIHGDGDQIVPFETTGKVAAELIKGAELKVYKDAPHGFAVTHAQQLNEDLLAFLKRGPGSGGAGSPGSAGGPGSHHHHHH | – | – | 18 | –
3 | EZ-40: ArE-link1-DenP308-H6, SEQ ID NO: 464 (protein) MAKRILCFGDSLTWGWVPVEDGAPTERFAPDVRWTGVLAQQLGADFEVIEEGLVARTTNIDDPTDPRLNGASYLPSCLATHLPLDLVIIMLGTNDTKAYFRRTPLDIALGMSVLVTQVLTSAGGVGTTYPAPKVLVVSPPPLAPMPHPWFQLIFEGGEQKTTELARVYSALASFMKVPFFDAGSVISTDGVDGIHFTEANNRDLGVALAEQVRSLLGPGSGGAGSPGSAGGPGSDPTKPPRTPTANTSRPHHNFGSGGGGSPHHHHHH | 2476 | 3605 | – | –
4 | EZ-37: ArE-link1-H6, SEQ ID NO: 461 (protein) MAKRILCFGDSLTWGWVPVEDGAPTERFAPDVRWTGVLAQQLGADFEVIEEGLVARTTNIDDPTDPRLNGASYLPSCLATHLPLDLVIIMLGTNDTKAYFRRTPLDIALGMSVLVTQVLTSAGGVGTTYPAPKVLVVSPPPLAPMPHPWFQLIFEGGEQKTTELARVYSALASFMKVPFFDAGSVISTDGVDGIHFTEANNRDLGVALAEQVRSLLGPGSGGAGSPGSAGGPGSHHHHHH | 927 | – | – | –
5 | EZ-44: Pfl-link1-HC263-H6, SEQ ID NO: 479 (protein) MSTFVAKDGTQIYFKDWGSGKPVLFSHGWPLDADMWEYQMEYLSSRGYRTIAFDRRGFGRSDQPWTGNDYDTFADDIAQLIEHLDLKEVTLVGFSMGGGDVARYIARHGSARVAGLVLLGAVTPLFGQKPDYPQGVPLDVFARFKTELLKDRAQFISDFNAPFYGINKGQVVSQGVQTQTLQIALLASLKATVDCVTAFAETDFRPDMAKIDVPTLVIHGDGDQIVPFETTGKVAAELIKGAELKVYKDAPHGFAVTHAQQLNEDLLAFLKRGPGSGGAGSPGSAGGPGSPSAQSQLPDKHSGLHERAPQRYGPEPEPEPEPIPEPPKEAPVVIEKPKPKPKPKPKPPAHDHKNQKETHQRHAAGSGGGGSPHHHH | – | – | 97 | 58
6 | EZ-39: ArE-link1-(GK)5-H6, SEQ ID NO: 463 (protein) MAKRILCFGDSLTWGWVPVEDGAPTERFAPDVRWTGVLAQQLGADFEVIEEGLVARTTNIDDPTDPRLNGASYLPSCLATHLPLDLVIIMLGTNDTKAYFRRTPLDIALGMSVLVTQVLTSAGGVGTTYPAPKVLVVSPPPLAPMPHPWFQLIFEGGEQKTTELARVYSALASFMKVPFFDAGSVISTDGVDGIHFTEANNRDLGVALAEQVRSLLGPGSGGAGSPGSAGGPGSGKGKGKGKGKHHHHHH | 3553 | 1366 | – | –
7 | EZ-42: Pfl-link1-(GK)5-H6, SEQ ID NO: 466 (protein) MSTFVAKDGTQIYFKDWGSGKPVLFSHGWPLDADMWEYQMEYLSSRGYRTIAFDRRGFGRSDQPWTGNDYDTFADDIAQLIEHLDLKEVTLVGFSMGGGDVARYIARHGSARVAGLVLLGAVTPLFGQKPDYPQGVPLDVFARFKTELLKDRAQFISDFNAPFYGINKGQVVSQGVQTQTLQIALLASLKATVDCVTAFAETDFRPDMAKIDVPTLVIHGDGDQIVPFETTGKVAAELIKGAELKVYKDAPHGFAVTHAQQLNEDLLAFLKRGPGSGGAGSPGSAGGPGSGKGKGKGKGKHHHHHH | – | – | 63 | 64
8 | EZ-43: Pfl-link1-DenP308-H6, SEQ ID NO: 467 (protein) MSTFVAKDGTQIYFKDWGSGKPVLFSHGWPLDADMWEYQMEYLSSRGYRTIAFDRRGFGRSDQPWTGNDYDTFADDIAQLIEHLDLKEVTLVGFSMGGGDVARYIARHGSARVAGLVLLGAVTPLFGQKPDYPQGVPLDVFARFKTELLKDRAQFISDFNAPFYGINKGQVVSQGVQTQTLQIALLASLKATVDCVTAFAETDFRPDMAKIDVPTLVIHGDGDQIVPFETTGKVAAELIKGAELKVYKDAPHGFAVTHAQQLNEDLLAFLKRGPGSGGAGSPGSAGGPGSDPTKPPRTPTANTSRPHHNFGSGGGGSPHHHHHH | – | – | 68 | 79
